One block for each binder: values may come before it.
Tests used:
Human IL-23 [1] = target: T1, Human IL-23 (human, UniProt Q9NPF7 20-189; P29460 23-328); assay: cell-based or functional assay
T1 sequence 1: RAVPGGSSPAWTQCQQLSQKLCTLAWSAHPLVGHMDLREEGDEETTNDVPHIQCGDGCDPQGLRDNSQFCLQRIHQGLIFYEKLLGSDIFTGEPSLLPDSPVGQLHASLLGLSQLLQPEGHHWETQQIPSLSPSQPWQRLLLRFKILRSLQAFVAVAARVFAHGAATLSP
T1 sequence 2: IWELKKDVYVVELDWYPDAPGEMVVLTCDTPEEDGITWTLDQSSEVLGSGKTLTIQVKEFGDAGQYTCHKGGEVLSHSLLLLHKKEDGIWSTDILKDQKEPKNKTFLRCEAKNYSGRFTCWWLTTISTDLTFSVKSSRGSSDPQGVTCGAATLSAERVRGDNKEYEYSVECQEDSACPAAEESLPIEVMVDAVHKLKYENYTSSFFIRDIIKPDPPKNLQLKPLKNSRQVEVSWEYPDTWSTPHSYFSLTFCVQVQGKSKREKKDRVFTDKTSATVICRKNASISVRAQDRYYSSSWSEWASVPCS

Human IL-18 [2] = target: T2, Human IL-18 (human, UniProt Q14116 37-193); assay: cell-based or functional assay
T2 sequence: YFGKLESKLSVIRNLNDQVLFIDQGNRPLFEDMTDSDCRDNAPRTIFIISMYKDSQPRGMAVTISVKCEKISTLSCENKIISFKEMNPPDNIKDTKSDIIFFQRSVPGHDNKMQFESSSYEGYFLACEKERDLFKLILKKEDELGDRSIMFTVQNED

Cynomolgus monkey IL-18 [3] = target: T3, Cynomolgus monkey IL-18 (Rhesus monkey (identical to cynomolgus …, UniProt Q9BGI5 37-193)); assay: cell-based or functional assay
T3 sequence: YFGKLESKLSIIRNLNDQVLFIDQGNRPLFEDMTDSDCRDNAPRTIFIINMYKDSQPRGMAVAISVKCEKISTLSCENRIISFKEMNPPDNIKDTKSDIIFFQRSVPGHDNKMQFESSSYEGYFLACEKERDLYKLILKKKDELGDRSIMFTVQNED

Human IL-18 [4] = target: T2, Human IL-18; assay: cell-based or functional assay; remark: listed apart in the source
Human IL-23 [5] = target: T1, Human IL-23; assay: cell-based or functional assay; remark: listed apart in the source
Human IL-23 [6] = target: T1, Human IL-23; assay: cell-based or functional assay; remark: listed apart in the source
Human IL-18 [7] = target: T2, Human IL-18; assay: SPR (Biacore 8K/T200), antibody captured on Protein A/G, cytokine as analyte, 25 C, geometric mean of n=3-5
Experimental: (§1) A heterodimeric bsAb, alongside anti-IL-18 and anti-IL-23 common light chain control bispecific antibodies, were assessed for binding to human and cyno IL-18 and IL-23, using the Biacore 8K and T200 (Cytiva) surface plasmon resonance (SPR) instruments. All reagents were generated recombinantly in-house with the exception of Rhesus monkey IL-18 which was purchased from R&D systems (Cat #2548-RM-025/CF). Rhesus and cynomolgus monkey amino acid sequences are identical. Therefore, the protein will be referred to as cynomolgus monkey IL-18.
(§2) Heterodimeric bsAb, anti-IL-18 and anti-IL-23 common light chain bispecific control molecules were assessed for binding to recombinant human and cynomolgus monkey IL-18 and IL-23 using the Biacore 8K and T200 (Cytiva) SPR instruments. The antibodies were captured onto Protein A/G, which was immobilised onto flow cell 2 of 8 channels (Biacore 8K) or flow cells 2, 3 and 4 (Biacore T200) of a CM5 series S sensor chip by primary amine coupling. The IL-18 or IL-23 analytes were passed over the captured antibodies at varying concentrations between 0.04-25 nM. The association phase was for 240 seconds at 30 μl/min, followed by a dissociation step of up to 1200 seconds. A 0 nM (i.e., buffer alone) injection was used to double reference the binding curves. Regeneration of the chip surface between cycles was carried out using 50 mM NaOH. The assay was run at 25° C. in HBS-EP⁺ buffer. Biacore 8K control software version 3.0 was used to run the experiment. Data was analysed using Biacore 8K Insight evaluation software version 3.0. Biacore T200 control software version 1.0 was used to run the experiment. Data was analysed using Biacore T200 evaluation software version 2.0. Affinities and kinetics were determined using the 1:1 kinetic fit inherent to the software where possible. All affinity values generated using both instruments were combined to determine geometric mean values.

Cynomolgus monkey IL-18 [8] = target: T3, Cynomolgus monkey IL-18; assay: as above
Experimental: as §1, §2

Human IL-23 [9] = target: T1, Human IL-23; assay: as above
Experimental: as §1, §2

Cynomolgus monkey IL-23 = target: T4, Cynomolgus monkey IL-23 (cynomolgus monkey); assay: as above
T4 construct: also called Cyno IL-23
Experimental: as §1, §2

Human recombinant IL-12 = target: T5, Human recombinant IL-12 (human, UniProt P29459 23-219); assay: cell-based or functional assay
T5 sequence 1: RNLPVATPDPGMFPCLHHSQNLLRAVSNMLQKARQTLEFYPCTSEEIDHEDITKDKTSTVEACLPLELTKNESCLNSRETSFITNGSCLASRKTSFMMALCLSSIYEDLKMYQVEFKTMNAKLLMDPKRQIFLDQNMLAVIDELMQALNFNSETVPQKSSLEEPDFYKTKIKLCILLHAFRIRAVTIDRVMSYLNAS
T5 sequence 2: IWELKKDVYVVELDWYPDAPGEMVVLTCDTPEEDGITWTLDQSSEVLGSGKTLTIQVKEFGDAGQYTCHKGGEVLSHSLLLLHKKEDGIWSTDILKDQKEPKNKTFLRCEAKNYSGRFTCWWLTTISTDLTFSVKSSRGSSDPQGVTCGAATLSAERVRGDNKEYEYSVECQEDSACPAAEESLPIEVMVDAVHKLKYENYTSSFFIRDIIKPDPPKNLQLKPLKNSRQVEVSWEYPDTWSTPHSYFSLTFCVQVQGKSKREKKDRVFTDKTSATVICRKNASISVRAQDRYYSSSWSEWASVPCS

- IC50 pM (Geomean), neutralisation of human IL-23-induced pSTAT3 in DB cells (MSD) (Human IL-23 [1]): 58.9 pM
- pIC50 (Geomean), neutralisation of human IL-23-induced pSTAT3 in DB cells (MSD) (Human IL-23 [1]): 10.2
- IC50 (pM, Mean), neutralisation of human IL-18-induced IFNγ secretion by KG-1 cells (Human IL-18 [2]): 115 pM
- pIC50 (GeoMean), neutralisation of human IL-18-induced IFNγ secretion by KG-1 cells (Human IL-18 [2]): 9.94
- IC50 (pM, Mean), neutralisation of cynomolgus IL-18-induced IFNγ secretion by KG-1 cells (Cynomolgus monkey IL-18 [3]): 97.7 pM
- pIC50 (GeoMean), neutralisation of cynomolgus IL-18-induced IFNγ secretion by KG-1 cells (Cynomolgus monkey IL-18 [3]): 10
- Fold change (from IL-18 control 1) of IC50, LPS + IL12-induced IFN-γ in human whole blood (Human IL-18 [4]): 1.9 fold
- IC50 nM, inhibition of LPS + IL12-induced IFN-γ in human whole blood (Human IL-18 [4]): 10.5 nM
- pIC50, inhibition of LPS + IL12-induced IFN-γ in human whole blood (Human IL-18 [4]): 8
- Fold change (from anti-IL-23, IL-23 control 1) of IC50, IL-23-induced pSTAT3 in T cells of human whole blood (Human IL-23 [5]): 2.42 fold
- IC50, inhibition of IL-23-induced pSTAT3 in T cells of human whole blood (Human IL-23 [5]): 395 pM
- pIC50, inhibition of IL-23-induced pSTAT3 in T cells of human whole blood (Human IL-23 [5]): 9.4
- Fold change (from anti-IL-23, IL-23 control 1) of IC50, IL-23-induced mouse IL-17A in mouse splenocytes (Human IL-23 [6]): 2.67 fold
- IC50 pM, inhibition of human IL-23-induced mouse IL-17A secretion in mouse splenocytes (Human IL-23 [6]): 111 pM
- pIC50 (M), inhibition of human IL-23-induced mouse IL-17A secretion in mouse splenocytes (Human IL-23 [6]): 10
- Kd (Human IL-18 [7]): 0.035 nM
- Kd (Cynomolgus monkey IL-18 [8]): 0.068 nM
- Kd (Human IL-23 [9]): 0.297 nM
- Kd (Cynomolgus monkey IL-23): 0.162 nM
B1: Heterodimeric bsAb 4 (bispecific antibody, human IgG1, kappa)
heavy 1: QVQLVQSGAEVKKPGSSVKVSCKASGYTFTDQTIHWMRQAPGQGLEWIGYIYPRDDSPKYNENFKGKVTITADKSTSTAYMELSSLRSEDTAVYYCAIPDRSGYAWFIYWGQGTLVTVSSASTKGPSVFPLAPSSKSTSGGTAALGCRVKDYFPEPVTVSWNSGALTSGVHTFPAVLQSSGLYSLSSVVTVPSSSLGTQTYICNVNHKPSNTKVDKKVEPKSCDKTHTCPPCPAPELAGAPSVFLFPPKPKDTLYITREPEVTCVVVDVSHEDPEVKFNWYVDGVEVHNAKTKPREEQYNSTYRVVSVLTVLHQDWLNGKEYKCKVSNKALPAPIEKTISKAKGQPREPQVYVYPPSRDELTKNQVSLTCLVKGFYPSDIAVEWESNGQPENNYKTTPPVLDSDGSFALVSKLTVDKSRWQQGNVFSCSVMHEALHNHYTQKSLSLSPGK
light 1: DIQMTQSPSSLSASVGDRVTITCKASRDVAIAVAWYQQKPGKVPKLLIYWASTRHTGVPSRFSGSGSRTDFTLTISSLQPEDVADYFCHQYSSYPFTFGSGTKLEIKRTVAAPSVFIFPPSDEELKSGTASVECLLNNFYPREAKVQWKVDNALQSGNSQESVTEQDSKDSTYSLSSTLTLSKADYEKHKVYACEVTHQGLSSPVTKSFNRGEC
heavy 2: QVQLVQSGAEVKKPGASVKVSCKVSGEISTGYYFHWVRQAPGKGLEWMGRIDPEDDSTKYAERFKDRVTMTEDTSTDTAYMELSSLRSEDTAVYYCTTWRIYRDSSGRPFYVMDAWGQGTLVTVSSASTKGPSVFPLAPSSKSTSGGTAALGCEVTDYFPEPVTVSWNSGALTSGVHTFPAVLESSGLYSLSSVVTVPSSSLGTQTYICNVNHKPSNTKVDKKVEPKSCDKTHTCPPCPAPELAGAPSVFLFPPKPKDTLYITREPEVTCVVVDVSHEDPEVKFNWYVDGVEVHNAKTKPREEQYNSTYRVVSVLTVLHQDWLNGKEYKCKVSNKALPAPIEKTISKAKGQPREPQVYVLPPSRDELTKNQVSLLCLVKGFYPSDIAVEWESNGQPENNYLTWPPVLDSDGSFFLYSKLTVDKSRWQQGNVFSCSVMHEALHNHYTQKSLSLSPGK
light 2: DIQMTQSPSSVSASVGDRVTITCLASEDIYTYLTWYQQKPGKAPKLLIYGANKLQDGVPSRFSGSGSGTDYTLTISSLQPEDFATYYCLQGSKFPLTFGQGTKLEIKRTVAAPSVFIFPPSDERLKSGTASVVCLLNNFYPREAKVQWKVDNALQSGNSQESVTEQDSKDSTYSLSSRLTLSKADYEKHKVYACEVTHQGLSSPVTKSFNRGEC
notes: Het-mAb format: anti-IL-23 mAb (risankizumab) on ZA and anti-IL-18 mAb on ZB, with Fc heterodimerisation, silencing and half-life extending mutations; Stably expressed in CHO cells; also called anti-IL-23xIL-18 HETmAb

- IC50 (pM), inhibition of IL-12-induced IFNγ secretion by NK-92 cells (Human recombinant IL-12): 875 pM
- IC50 (ug/mL), inhibition of IL-12-induced IFNγ secretion by NK-92 cells (Human recombinant IL-12): 0.13 µg/mL
B2: Ustekinumab (antibody, V domains shown)
VH: EVQLVQSGAEVKKPGESLKISCKGSGYSFTTYWLGWVRQMPGKGLDWIGIMSPVDSDIRYSPSFQGQVTMSVDKSITTAYLQWNSLKASDTAMYYCARRRPGQGYFDFWGQGTLVTVSS
VL: DIQMTQSPSSLSASVGDRVTITCRASQGISSWLAWYQQKPEKAPKSLIYAASSLQSGVPSRFSGSGSGTDFTLTISSLQPEDFATYYCQQYNIYPYTFGQGTKLEIK

From patent US20260226152A1 (GlaxoSmithKline, published 2026)
